Data taken from the DeepSol protein solubility set.

Experiment: soluble on expression in E. coli; label from the status in PepcDB or PDB records

| Sequence | soluble on expression in E. coli |
| --- | --- |
| MGSDKIHHHHHHMETWRFIDSGDRDPAYNMALDEALLNWHSEGLIPPTIRFYGWNPPTLSIGYFQKVQKEINMEMVEKHQLGFVRRPTGGRGVLHDKELTYSVIVTEEHPDMPASVTEAYRIISQGILEGFRDLGLDAYFAVPKTEEEKNALKNPRSAVCFDAPSWYELVVEGRKVAGSAQTRQKGVILQHGSIVLDIDEDKLFDLFNYPSERVRERMQRNFKNKAVPINELRDVPLSMEEVKKAFKDGFEKGLSIKLEPYTLTDAEEAEVKQIAKERYETDEWNFRK | not soluble |
| MGSDKIHHHHHHMFERSDETLIAQALKGKKSAWLTLVKRYEKNLYNYALRMVNNPADAMDLMQDIFIALFRNLSKFRGECPFKNWLFKIAHYRCLEYYRRKRPMQSLDDVPEQEDEESVCLEKNLQIQQQSSALLEAMQHLPVKQKLVVELKFFQQCTFEDISQQLGISTNTAKSQLYSALDKLKLHLVDDQIIKVGVEYV | not soluble |
| MGSDKIHHHHHHMFHREDFSKALLKKALQPGMRVMDIGCGSGELTRLAADIVGKEGDVVGIDINEQLLWQARHDNGYANVSYQNADLAALSSFETKSFDAIIGRRVLMYQKDPKKVIESLTPLLKPNGFYVFQESDAMCLELAKPSFVNMNKIQSLIWQTVEKEGGHIHIGSQLEQLMLEAGLIVDHFVSENVIQTSQTGTDLSWLLNIMKERIQKYSDLQGLEDVNLQKELEENNDHFIRDCQFGIISHRVDE | not soluble |
| MGSDKIHHHHHHMFKPNYHFFPITGWMNDPNGLIFWKGKYHMFYQYNPRKPEWGNICWGHAVSDDLVHWRHLPVALYPDDETHGVFSGSAVEKDGKMFLVYTYYRDPTHNKGEKETQCVAMSENGLDFVKYDGNPVISKPPEEGTHAFRDPKVNRSNGEWRMVLGSGKDEKIGRVLLYTSDDLFHWKYEGVIFEDETTKEIECPDLVRIGEKDILIYSITSTNSVLFSMGELKEGKLNVEKRGLLDHGTDFYAAQTFFGTDRVVVIGWLQSWLRTGLYPTKREGWNGVMSLPRELYVENNELKVKPVDELLALRKRKVFETAKSGTFLLDVKENSYEIVCEFSGEIELRMGNESEEVVITKSRDELIVDTTRSGVSGGEVRKSTVEDEATNRIRAFLDSCSVEFFFNDSIAFSFRIHPENVYNILSVKSNQVKLEVFELENIWL | not soluble |
| MGSDKIHHHHHHMFKSTLNSIIRRPLKGFQLLRGADSSNTRPQSPRASARDVTEKQILRTPSAPTAIPLREIIYRVPSLFPRPLEDSVKDFRDFIKNEDAFQTELLKTLPFYPTPSESKTARLIRTVVDDEGNYINEFCIRPRKTSVPEADLKHLVFIHGYGAGLGFFIKNFEDIPLLDNEWCIHAIDLPGYGFSSRPKFPFEYPRDNIHSVQDWFHERIHTWFSKRNLLNRPEKNIVMAHSLGSYLMALYLQKYKESPSFKKLILCSPAGVSYRDFNNTASEVEKWKPPPWWYVKLWDRNISPFTLVRNFRQLGSKITSGWSYRRFKHILNGDPEQSKRFEALHRYAYAIFNKRGSGEYLLSFALKCGGEPRLSLEQQLFDGKKSDILKNSNCDWLWLYGDDDWMDVNGGLRVSRFLKEKLKQKSNVIIVPHSGHHLYLDNYKFFNNILTKEMQKI | not soluble |
| MGSDKIHHHHHHMFNAQYFRTFITLVETGSFTHTARKLEMTQPGVSQHIRKLERYLDKSLLYRHGRRFTLTETGRRAYDYAVKLFAEHEQFRHSLDNDSPDTGECRVASPSSVGLMFYPFILGYQQMHPGLTVTYDFAFNAEIVDAVLAGRFDVGIVTDVTKHPDLDFEPWHQEPLCLLVPADFTGTTISELMALGFMNYSDGINNASSLLRRNFAGEFRSMSHFPQQGFSNEVSMVLDAVARGLGFTVVPRSVMETSPWQRQVKELPLAESVYETLYVVTKRGVEMPRRYQQLLGEFRLQRRNVLYGYAEAPPLEDEA | not soluble |
| MGSDKIHHHHHHMFNGRPFPVDAFPKIIRNAIYEVEQHTQAPQGLIAASALGVISLACQNRIDVCRLNNLRGPVSLFLMTLAESGERKSTVDKLLMKPLYQLEEDLFEKYTHDLTAWRNDEAIFNIEKKALMSKLKSDIRRNKDHLATNERLKELLTTNPKAPVRFKFLFNDATPAAIKAHLCGHWRSVGIMSDEAGIIFNGYTLNELPFINKMWDGSIFTVERKNEPEKLIRDARITLSLMVQPNVFKGYIDRKGDMAKGIGFFARCLMCQPASTQGNRKISNPIFSNEHLPVFHQRLMEIVNESIIKINENNRICLRFSAEAERHWIEFYNQVESEMRMIGLLYDFKDYASKMAENMARLAALLHYFSGDGGDISVTAVKAAVEIVAWYIEEYIRLFSKKEEFSLDVSEADELYCWIKDYCTQKFSSCIKKNIILQFGPNKFRNRDKANELIRILISQNKIFISSWGKTKIINITHCVF | not soluble |
| MGSDKIHHHHHHMFNSERLCIARERRGLTQRALAEAAGLTSKTISNYEKAGIFDAIASDSMERISAVLEYPIEFFLDRDVPSLTPEAVSFRAMTKLSAQKRDSALGAGKLAQELSAWIDGQFKLPKPNVPDSSFDGYSEPERAARTVREAWGIGELSISNIVHLLEANGIRVFSLAENCVEVDAFSFWMDEKPFVLLNTMKTPERSRFDAAHELGHLVLHKHSCNNGRQAEQDADRFASAFLMPERSILASVPRMPRLEQLILLKKNWKVSLAALVRRTFDVGLSTEWHYRQLSIELNRRGYRTGEPQGMPEREKSLILEKVFSALRTQGIKRTEILGQLRFPADEVSALTFNNRFFMEAITGDGPQSYIERKQPPQLSLVK | not soluble |
| MGSDKIHHHHHHMFPAGEMFFIESIRNVRNQIKDEKLLEDIKAFIAQEAFHSREHKMLNNHLIHSNYPEVVEIEAQTKARLDKLRQLSAVEQVAATVVMEHYTATLARLLLTDSLIKAKTTQESRNLWEWHALEELEHKSVAFDVLNAIGGNSSKNRKVALARVAKLITPIIFKYWIKILKRKDINFTLKQLKDGIYLGFGGINRVGILSKAFVDMLDVRAENFDPLNMQTEQLEAEFREKLFGQAGFLRDYLS | not soluble |
| MGSDKIHHHHHHMFRSMRTSHERVHFTAKARRASTMAAPQNKVIVTCAVTGGIHTPTMSPHLPITARDIEDESVAAAEAGAAIVHLHARKPENGQPSQDPALFLEFLPRIAARSDVVINLTTGGAPNMLVEERLQPALQLKPEVASLNMGSMNFGLYPMIARHKTFKYDWERPYLEGSEDRVFRNTFKEIRYILESCADNGTRFEIECYDTSHLYTAAHFIDRGILKPPFFIQSVFGLLGGIGTHPDDVMHMRRTAERLFGKDYYWSVLGAGRSQMPIASMAAAMGGNVRVGLEDSLWEDRGRLSRSNADQVRRVVGILKSLNLEVATPDEARDMLQLKGRDAVAF | not soluble |
| MGSDKIHHHHHHMFSKKVKWEETMTYKSIRALERGIDVLQYLNTVKGAAPPEIAENVNLPRPTVHRILETLSELNLVYRSQLGDEYRLSSGVQRLAGNRSSVRLNWIDEIALPALLELTSEIIWPSDIAVCHKAAMIIQGTTHRISPMSCDVGMVGNRRSMLMSPLGRAYLSHCPDDELKSILCALNASSASEDKGARDRAFIKEIIETGRRDGVSACNERPHPRCASLAAPIRLNGKVLACMNVVWRANMLTIEDAMDQIRDPLLATRDRIEAQLHEQFARPALGSTSFPETYTLRTGTRDRLPHSLALA | not soluble |
| MGSDKIHHHHHHMFTQATFDFLAALEANNERDWFKANQHTYEDKVRTPALALIEAAAPAIVALSPRLTAVAKKVGGSLMRPQRDTRFGHDKRPYKTNVGIQFRHFQGKDVHAPGLYLHIANDGCFVAAGIWHPESKALNAIRSCIDENPATYQKALKALTDSGFAMDGDSLSRPPRGYDKRHPLIDELKRKDFIAVKSLTNHEVLQPDFASRLVAEFEHCQQLMRYLCFALELDY | not soluble |
| MGSDKIHHHHHHMFVDTTLRDGHQSLIATRMRTEDMLPALEAFDRMNFHSMEVWGGATFDVAVRFLNENPWERLKKIREGLKNTKIQMLLRGQNLVGYRHYADDVVELFIKKVAEYGLDIIRIFDALNDERNLQKSIEESKKHGLHVQVAISYTVSPVHTLDYYLDFARKLLDMGVDSICIKDMAGLLTPKRAYELVRALKEKFGVPVEVHSHCTTGFAPLAYQAAYEAGADFFDTAISPFSMGTSQPTFETMYYAFRGNGKEDFDREALKFLVDHFTKVRMKYIEYDVGMKYPDSRIIFSQIPGGMYSNLLKQLKEQRMEHLLDKVLEEVPRVQKDLGYPPLVTPTSQIVGVQAFLNVVYGRYERITNETRNYVKGLYGRPPAPIDPELMRKILGDEKPIDCRPADLLEPELDKTRKELGILVETDEDLLIAVILGEVGKKFLRKKYEEKIGVDFNYLESLSDFTDDMPVYPV | not soluble |
| MGSDKIHHHHHHMFVEACGRLVLIRKIYGLVKVFMVKKTIRYMRISLMLTNDAIFTTRLQKGGALLDDMRQLVCQWTEAVAKPESQAGEILHKATRSRVADTYRRAFLPRFLKGSPQDAWKLARALEEAHPSIEIIRPFYYWITARAEPILYAYVTEELVEKAKTSDRAVRTEETASWINNTLRSCGRVWSPTVQLKVARGILAALRDFAILEGAVNKRLVHGHLPIETFCLIAFLLNLMGIGARELVEHSDWKLFLLAGPEVERLFFEAHQHGWLHYQAAGRVHRIEFPTNDFKDYIRVIFGTES | not soluble |
| MGSDKIHHHHHHMGAKKNFVLDTNVILHDYKCIENFQENDIYLPIVVLEELDKFKKGSEQINYNAREFVRELDLLTSNDLFLKGASLGPGKGTLYIVTGDKYQEKIAHSFPDKTPDHRILSCALTIAEKNPKIKTTLVSKDVNLRMKARSLGIPVEDYITDKVVNVDIFERAQETYENIDPDLIDKIYSSPEGVDADSLDIKSKLDPNECFILKSVRNSVLARYNPFTDKIKKVDKGTNFGIQPRNAEQSFAFEVLNDPNIKLVGLTGKAGTGKTLLALASALKQAGTYKQILLARPIVALANKDLGFLPGDEKQKVAPYMQPLFDNLNVIKTQFAPGNPDVRKIDDMQKNNQLVIEALAFIRGRSLSETYCIIDEAQNLTPHEIKTIITRAGEGTKMVFTGDIQQIDSPYLDAQSNGLAYMIDKMKGQDLFAHINLIKGERSELSELASDLL | not soluble |
| MGSDKIHHHHHHMGDSMSLDWDKLRIFHAAAEAGSFTHAADKLHLSQSAISRQVSSLEQDVGIKLFHRHARGLILTEQGEMLYRTAHDVLMKLESVKAQLSETTDKPSGKLRITTTVGLGQGWLTDKIQEFMSLYPEIQVQLILDNEELDVNMRHADCAIRLRQPQQSDLIQRKLFTVHMHVYAAPSYINKYGEPQSLDDLDNHRIITFGEPAPNYLLDVNWLEIAGRDSDNPRISHLQINSQTSIKRACLLGIGIAMLPDYIVGRDPGLIQLPISADIPSFDTYFCYPDELKNAAKLKVFRDYIVAKARNWNF | not soluble |
| MGSDKIHHHHHHMGIPKRKLGERGPEVSAIGLGCMRMSFGQKKLPDRKEMIKLIRTAVELGINFFDTAEVYGPYTNEELVGEALEPFKGEVVIATKFGFELYEDGRPGWKGLNSNPEHIKKAVEGSLRRLRVEAIDILYQHRVDPNVPIEEVAGAVKELIEEGKVKHFGLCEASAETIRRAHKVCPVDVVQYEYSMWWRKPEEELLPTCEELGIGFVAYSPLGKGFLTGAIGENSKFDEEDSRSRIPRFQKENLRENLALVELRKTIAERKGATPSQIALAWLLAQKPWIVPIPGTTKLSHLLENIGGAFVELTPEELQEINDALSRIEIKGSRYPEDMEKMTYL | not soluble |
